Results as given in patent US7927864B2, “Methods, kits, and compositions for detecting enzyme activity” (Wake Forest University Health Sciences, priority 2006, dated 2011).

What was measured:
ADAMTS13 [1] = assay: FRET measurement of ADAMTS13 cleavage of fluorescein-labeled recombinant VWF73 peptide in plasma; assay type: biochemical
Method: (§1) The working peptide was prepared by dissolving the peptide pellets in DMSO and then diluted with assay buffer, 5 mM Bis-Tris, 25 mM CaCl2, 0.005% Tween 20 at pH 6.0 to a final concentration of 4.5 μM. Pooled Normal Plasma (PNP) was used as a source of ADAMTS13. Heat inactivated PNP, heated overnight at 56° C., and known ADAMTS13-deficient patient plasma were used as negative controls. All samples were diluted 1 in 8 with assay buffer to reduce the ionic strength. Reactions were carried out in 96 well plates using 100 μL of dilute plasma and 100 μL of working peptide solution. The rate of fluorescence increase with time was monitored by a fluorometer.
(§2) FIG. 2 depicts fluorescence of the recombinant peptide during incubation. […] Each experiment was performed in triplicate and mean values are shown. Thus, it is apparent that the fluorescence increase resulting from the separation of fluors by ADAMTS13 cleavage of a labeled peptide substrate is measurable and can be used for FRET based enzyme assays.
(§3) FIG. 3 depicts the rates of change of fluorescence produced by dilutions of PNP in heat inactivated PNP. Undiluted PNP represents 100% ADAMTS13 enzyme activity for purposes of determining quantitative enzyme activity. Each point represents the mean±SEM of triplicate determination. Thus, it is apparent that recombinant fluorescein labeled peptides can be used as effective substrates in quantitative FRET based assays of ADAMTS13. Further techniques for quantitative analysis of enzyme activity are well known to skilled artisans.

ADAMTS13 [2] = biological target: T1, ADAMTS13 (Homo sapiens, UniProt Q76LX8); assay: as above; assay type: biochemical; details: incubation with pooled normal plasma (PNP) as source of ADAMTS13; peptide 4.5 μM working solution, plasma diluted 1 in 8, pH 6.0
T1 construct: Pooled Normal Plasma (PNP) was used as a source of ADAMTS13; from tissue; host or cells: pooled normal plasma (PNP); the substrate peptide was made in M15 E. coli
T1 sequence (Q76LX8 75-1427): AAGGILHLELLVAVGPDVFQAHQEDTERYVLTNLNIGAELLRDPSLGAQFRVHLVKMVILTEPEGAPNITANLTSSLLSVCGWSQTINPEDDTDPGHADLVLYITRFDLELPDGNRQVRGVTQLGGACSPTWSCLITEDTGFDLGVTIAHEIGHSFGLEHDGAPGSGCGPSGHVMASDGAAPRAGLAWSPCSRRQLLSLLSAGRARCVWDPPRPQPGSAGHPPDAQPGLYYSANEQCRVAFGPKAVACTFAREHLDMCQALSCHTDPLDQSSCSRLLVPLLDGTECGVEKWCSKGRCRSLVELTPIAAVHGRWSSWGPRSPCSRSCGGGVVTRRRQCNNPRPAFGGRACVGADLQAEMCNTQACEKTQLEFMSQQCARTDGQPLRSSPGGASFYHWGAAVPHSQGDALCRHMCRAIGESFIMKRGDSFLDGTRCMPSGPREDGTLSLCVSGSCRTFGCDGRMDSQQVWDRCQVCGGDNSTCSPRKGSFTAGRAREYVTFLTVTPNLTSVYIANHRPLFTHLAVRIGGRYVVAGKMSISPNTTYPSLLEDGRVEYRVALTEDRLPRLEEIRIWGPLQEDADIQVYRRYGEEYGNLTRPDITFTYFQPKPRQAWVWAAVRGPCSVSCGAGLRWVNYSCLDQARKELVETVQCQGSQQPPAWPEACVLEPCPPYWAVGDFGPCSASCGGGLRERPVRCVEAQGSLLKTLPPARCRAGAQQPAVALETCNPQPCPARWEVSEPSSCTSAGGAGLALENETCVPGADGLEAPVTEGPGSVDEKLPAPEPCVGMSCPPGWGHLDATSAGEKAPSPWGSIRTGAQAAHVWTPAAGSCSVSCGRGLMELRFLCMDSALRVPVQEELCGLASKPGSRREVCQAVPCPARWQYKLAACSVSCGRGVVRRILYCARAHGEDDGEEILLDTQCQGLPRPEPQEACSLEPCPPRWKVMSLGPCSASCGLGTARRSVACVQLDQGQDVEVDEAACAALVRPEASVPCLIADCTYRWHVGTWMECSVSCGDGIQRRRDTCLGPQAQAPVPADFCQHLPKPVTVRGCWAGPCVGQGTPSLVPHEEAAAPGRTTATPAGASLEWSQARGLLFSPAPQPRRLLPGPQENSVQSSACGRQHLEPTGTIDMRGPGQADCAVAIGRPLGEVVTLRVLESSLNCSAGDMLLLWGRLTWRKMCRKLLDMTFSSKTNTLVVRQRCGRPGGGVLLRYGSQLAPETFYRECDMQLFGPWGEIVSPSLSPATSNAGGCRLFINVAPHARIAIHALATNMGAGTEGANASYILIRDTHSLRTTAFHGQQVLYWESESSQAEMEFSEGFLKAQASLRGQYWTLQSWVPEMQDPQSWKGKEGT
Method: as §1, §2, §3

B1: recombinant peptide: Recombinant His-tagged 73 amino acid VWF A2 peptide (SEQ ID NO: 1); Q1599 and P1611 mutated to cysteines, both labeled with fluorescein (conjugate)
chain: DRECAPNLVYMVTGNCASDEIKRLPGDIQVVPIGVGPNANVQELERIGWPNAPILIQDFETLPREAPDLVLQR
modifications: fluorescein labels on cysteines; His-tag; This is a 73 amino acid fragment of native von Willebrand factor, substituted with cysteines at positions 4 and 16.
notes: Q1599 and P1611 mutated to cysteines, both labeled with fluorescein
fluorescence of the recombinant peptide during incubation (ADAMTS13 [1]; incubation with heat inactivated PNP (negative control)): only minimal change in fluorescence | fluorescence of the recombinant peptide during incubation (ADAMTS13 [1]; incubation with plasma samples from TTP patients with no ADAMTS13 activity (negative control)): only minimal change in fluorescence | fluorescence of the recombinant peptide during incubation (ADAMTS13 [2]): steady increase of fluorescence over time
